Test results: US20250236667A1, “ANTIBODIES TO MUTANT CALRETICULIN AND USES THEREOF” (CENTRAL ADELAIDE LOCAL HEALTH NETWORK INC, priority 2021, published 2025)

Legend:
[1] = system: ruxolitinib-resistant TF-1 TpoR CALR^del61 cells; experiment: Cell growth in liquid culture, trypan blue exclusion; assay type: cell-based, human; conditions: 20 μg/mL, 96 hours
Description: A. Graph showing effect of ruxolitinib on megakaryocyte differentiation at 50 and 100 nM in healthy CD34+ cells (n=4). B. Effect of 4D7 on TPO-dependent megakaryocyte differentiation of healthy CD34+ cells cultured with 20 μg/mL 4D7 or IgG control (n=4). C. Total numbers of hematopoietic colonies plated in MethoCult from healthy cord blood after treatment with 4D7 or IgG. CFU-GM, colony forming unit-granulocyte macrophage: BFU-E, blast forming unit-erythroid: CFU-GEMM, colony forming unit granulocyte, erythroid, monocyte, megakaryocyte (n=3).D. CD41+megakaryocyte colonies from healthy CD34+ cells observed on collagen matrix after 4D7 treatment. Colonies were cultured in TPO, SCF. IL-9 and IL-3. E. Number of megakaryocyte colony forming units observed in MegaCult assay after treatment of healthy cord blood CD34+ cells with either IgG or 4D7 (n=3). F. Western blot showing signalling in ruxolitinib-resistant TF-1 TpoR CALR^del61 compared to ruxolitinib sensitive TF-1 TpoR CALR^del61 cells after treatment with 100 nM ruxolitinib for 16 hours or 30 minutes and blotted for phospho-STAT5, total STAT5, phospho-ERK, total ERK and actin as indicated. Ruxolitinib-sensitive cells were non-viable after 16 hours of treatment. […] Cells counted using Trypan Blue exclusion with replicate wells (n=3). […]

[2] = system: wild type TF-1 TpoR expressing cells; experiment: Flow cytometry of 4D7 binding to the cell surface, wild type cells; assay type: cell-based, human; conditions: PE-conjugated 4D7; wild type TF-1 TpoR cells
[3] = system: mutant CALR neoepitope peptides; experiment: Binding of 4D7 to peptides covering regions of the immunizing neopeptide; set-up: species or system human
Description: B. Diluting concentrations of 4D7 to bound full-length 30 amino acid peptide compared to scrambled, C-terminal and N-terminal 11 amino acid peptides as shown in A (n=3). C. Scatchard analysis showing dissociation constant of 4D7 using I^125-labelled and unlabelled 4D7 bound to full-length 30 amino acid peptide (n=3). D. Histogram showing fluorescence intensity of 4D7 conjugated to phycoerythrin at a 4 μg/mL TF-1 TpoR CALR^del 61 vs TF-1 TpoR compared to unstained. E. TF-1 TpoR cells with endogenous wild type CALR cultured in the presence of TPO and 2, 10 or 20 μg/mL 4D7 anti-mutant CALR antibody or 20 μg/mL control IgG antibody (n=3). F. Proliferation curves of factor-independent TF-1 TpoR CALR^del61 cells cultured with 2, 10 or 20 μg/mL 4D7 or 20 μg/mL of control IgG antibody (n=3). G Proliferation curves of factor-independent TF-1 TpoR CALR^del52 cells cultured with 10 or 20 µg/mL 4D7 or 20 μg/mL of control IgG antibody (n=3). Data information: For panels E-G, bars represent standard error of the mean summarizing 3 independent experiments performed in triplicate, with a one-way ANOVA with Bonferroni correction used to determine statistical significance.

[4] = system: TF-1 TpoR CALR^del61 cells in NSG mice; experiment: Chloroma xenograft model (subcutaneous injection); assay type: in vivo
Description: All procedures were approved by the South Australian Health and Medical Research Animal Ethics Committee (Protocol SAM21-018). Bone marrow engraftment model: 4-6 week old NSG mice were x-ray irradiated with 150 cGy and 5×10^5 cells (TF-1-TpoR CALR^del61) or 5×10^4 cells (100 nM ruxolitinib resistant TF-1 TpoR CALR^del61) were intravenously injected into mice. […] Tail vein bleeds were taken at 3 weeks and analysed via flow cytometry to determine human leukaemia content in the peripheral blood. Leukemic cells were PI-, mCD45.1, hCD33+, zsGreen+. Mice were monitored daily and euthanized once clinical symptoms were observed. At the time of euthanasia, cardiac puncture was performed to obtain both peripheral blood and serum for analysis. Additionally, bone marrow from both femurs, spine and spleens were analysed for leukemic content as detailed above. Chloroma model: 4-6 week old NSG mice were anaesthetised by isoflurane inhalation and shaved on the left back/flank and 1×10^7 cells were injected into the mice. Cells were pre-treated with 20 μg/mL IgG or 4D7 for 1 hour prior to injection. […] Tumour progression was assessed through caliper measurements every 2 days. Mice were euthanised once tumours began to impede movement, show signs of ulceration or if any measurement of the tumour exceeded 30 mm (length, width or depth).

B1: 4D7: rat monoclonal IgG2a antibody against the mutant CALR neoepitope; VH SEQ ID NO: 5, VL SEQ ID NO: 7 (antibody, listed as Rattus rattus, V domains shown)
VH: QVQLQQSGAELAKPGSSVKISCKASGYTFTNYDMSWIKQRPGQALEWIGAINPGNGVTDYNEKFRGKATLTVDKSSSTAFMQLSSLTPEDTAVYHCAREYRDNYGYFDYWGQGVMVTVSS
VL: DIVLTQTPVSLSVTLGDQASISCRSSQSLEYSDGYTYLDWFLQKPGQSPQLLIYEVSSRFSGVPDRFIGRGSGTDFTLKISRVEPEDLGVYYCFQATHDPFTFGSGTKLEIK
- inhibitory activity on cell growth in liquid culture [1]: strong inhibitory activity
- binding to the cell surface [2]: but not wild type TF-1 TpoR expressing cells
- binding to C-terminal portion of the immunogen ([3]; C-terminal 11 amino acid peptide): no binding
- region of the immunizing neopeptide to which binding was mapped ([3]; peptides covering different regions of the neopeptide): 11 amino acids of the N-terminus
- binding to scrambled peptide ([3]; scrambled peptide): no binding
- survival, hazard ratio ([4]; 4D7 vs IgG, P=0.02): 0.19
- mean tumour volume ([4]; 21 days post-engraftment, 12.5 mg/kg twice weekly, P=0.04): 353 mm^3
